# Data taken from publication PMC8262983.
# Molecular target: recombinant 6×His-HSP70 (P. falciparum)
binder,measurement,value
recombinant 6×His-HSP40 (natural protein) MFFSSGFPFDSMGGQQARRKREVNNNKFYEVLNLKKNCTTDEVKKAYRKLAIIHHPDKGGDPEKFKEISRAYEVLSDEEKRKLYDEYGEEGLENGEQPADATDLFDFILNAGKGKKKRGEDIVSEVKVTLEQLYNGATKKLAISKDIICTNCEGHGGPKDAKVDCKQCNGRGTKTYMRYHSSVLHQTEVTCNTCRGKGKIFNEKDKCANCKGMCVLKTRKIIEVYIPKGAPNKHKIVFNGEADEKPNVITGNLVVILNEKQHPVFRREGIDLFMNYKISLYESLTGFVAEVTHLDERKILVNCTNSGFIRHGDIREVLDEGMPTYKDPFKKGNLYITFEVEYPMDLIITNENKEVLKILKKQNEVEKKYDLENSELEVVSCSPVDKEYIKVRVTKQQQQQQQEAYDDEDHQPEMEGGRVACAQQ,ATPase activity of HSP70 (EnzChek phosphate assay; 45 μg HSP70 with 8.9 μg HSP40 against HSP70 alone),3 fold
